From patent US20200262888A1 (HANMI PHARM, published 2020) come the findings set out here.

The test deals with T1, human GLP-2 receptor (human, UniProt O95838 1-553).
T1 sequence (looked up): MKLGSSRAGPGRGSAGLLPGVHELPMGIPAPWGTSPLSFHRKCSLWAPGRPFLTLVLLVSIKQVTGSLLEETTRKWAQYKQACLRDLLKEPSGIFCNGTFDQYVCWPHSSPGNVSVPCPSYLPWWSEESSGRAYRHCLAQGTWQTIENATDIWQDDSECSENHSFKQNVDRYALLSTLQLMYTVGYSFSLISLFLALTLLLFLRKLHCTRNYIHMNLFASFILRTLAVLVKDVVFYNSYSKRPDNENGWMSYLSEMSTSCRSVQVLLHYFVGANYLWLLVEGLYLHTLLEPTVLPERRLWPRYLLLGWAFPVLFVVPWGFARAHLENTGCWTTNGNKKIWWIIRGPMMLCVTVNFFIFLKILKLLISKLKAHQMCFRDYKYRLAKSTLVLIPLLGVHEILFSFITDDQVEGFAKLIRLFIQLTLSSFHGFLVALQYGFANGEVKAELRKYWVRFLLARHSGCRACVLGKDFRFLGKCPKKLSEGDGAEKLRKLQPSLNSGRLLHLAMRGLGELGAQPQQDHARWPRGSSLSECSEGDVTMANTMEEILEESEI
Kind of test: cell-based or functional assay.

Non-standard residues stand in square brackets, D forms with d. No end group written: not given here. *: point of attachment. Acetyl(2-(4-imidazolyl)) = O=C(Cc1c[nH]cn1)*

As for Teduglutide (Gattex, Shire) (peptide), the In vitro activity compared to human GLP-2 (%) (relative titer from EC50 of cAMP accumulation, CHO-K1 cells expressing human GLP-2 receptor) came out at 148%.

Regarding [Acetyl(2-(4-imidazolyl))]GDGSFSDEMNTILDNLAARDFINWLIQTRITDK [CA GLP-2 RK], the “In vitro activity compared to human GLP-2 (%) (relative titer from EC50 of cAMP accumulation, CHO-K1 cells expressing human GLP-2 receptor)” value came to 333%.

For the molecule XGDGSFSDEMNTILDNLAARDFINWLIQTKITDC (position 1 is imidazoacetyldeshistidine (caH) instead of histidine) [CA GLP-2 KC], the “In vitro activity compared to human GLP-2 (%) (relative titer from EC50 of cAMP accumulation, CHO-K1 cells expressing human GLP-2 receptor)” value was found to be 149%.

With XGDGSFSDEMNTILDNLAARDFINWLIQTKITDK (position 1 is imidazoacetyldeshistidine (caH) instead of histidine) [CA GLP-2 KK], the “In vitro activity compared to human GLP-2 (%) (relative titer from EC50 of cAMP accumulation, CHO-K1 cells expressing human GLP-2 receptor)” value was 206%.

[Acetyl(2-(4-imidazolyl))]GDGSFSDEMNTILDNLAARDFINWLIQTRITDC [CA GLP-2 RC]: the “In vitro activity compared to human GLP-2 (%) (relative titer from EC50 of cAMP accumulation, CHO-K1 cells expressing human GLP-2 receptor)” value stood at 120%.
